Literature values in patent US6896870B1, “Diagnostic probes and therapeutics targeting uPA and uPAR” (Angstrom Pharmaceuticals, Inc., priority 1999, dated 2005).
Bridge positions count the residues as written; N and C are the ends. Ends that are not written are not given here.

Target: uPAR (Homo sapiens, UniProt Q03405)
Conditions: read-out: IC50, prevention of uPA binding to uPAR

uPAR, sequence (Q03405 23-305): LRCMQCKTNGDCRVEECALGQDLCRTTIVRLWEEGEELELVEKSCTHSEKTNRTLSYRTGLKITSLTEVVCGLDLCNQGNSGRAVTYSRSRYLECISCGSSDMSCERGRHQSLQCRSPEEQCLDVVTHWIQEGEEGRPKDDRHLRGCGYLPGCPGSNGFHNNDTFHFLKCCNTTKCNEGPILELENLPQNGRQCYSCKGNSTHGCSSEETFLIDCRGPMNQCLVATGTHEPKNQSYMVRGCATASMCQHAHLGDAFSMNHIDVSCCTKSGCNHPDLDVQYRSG

IC50	Substance
100 nM	[Ala^19]uPA(12-32) [[Ala^19]uPA(12-32) open chain form] (DCLNGGTAVSNKYFSNIHWCN; UniProt P00749 32-52, looked up, variant C19A) [uPA GFD peptide with two cysteines, the third cysteine replaced by Ala]
40 nM	[Ala^19]uPA(12-32) [[Ala^19]uPA(12-32) oxidized cyclic form] (DCLNGGTAVSNKYFSNIHWCN; disulfide 2-20 (inferred); UniProt P00749 32-52, looked up, variant C19A) [same peptide cyclised by intrachain disulfide bond]
